What was measured:
[1] = target: T1, biotinylated Human PD1 (AcroBiosystems, reference EP-101) (human, UniProt Q15116 25-167, limits assumed, biotinylated); assay: competition ELISA: PD-L2 Fc immobilised, biotinylated PD-1 mixed with the fusion at varied concentration, streptavidin-peroxidase; blocked ligand PD-L2 [following]
T1 construct: also called biotinylated recombinant human PD-1; recombinant biotinylated PD1 protein
Experimental: (§1) FIG. 8: Competition PD-1/PD-L1 or PD-L2 ELISA assay. […] (D): PD-1/PD-L2 antagonist activity. […] Similar protocol as PD-L1/PD-1 assay was used for revelation. In this experiment, the bifunctional molecule comprises a humanized anti-PD1 antibody having a heavy chain variable domain as disclosed in SEQ ID NO: 24 and a light chain variable domain as disclosed in SEQ ID NO:28.
(§2) Competitive ELISA assay was performed by PD-1:PD-L1 Inhibitor Screening ELISA Assay Pair (AcroBiosystems; USA; reference EP-101). In this assay, recombinant hPDL1 was immobilized on plastic at 2 μg/ml in PBS pH 7.4 buffer. […] Same ELISA protocol was performed to assess PDL2/PD1 antagonist activity by coating PD-L2 Fc recombinant protein (Sinobiological, #10292-H02H).

[2] = target: T2, recombinant hPD1 (Sino Biologicals, reference 10377-H08H) (human, UniProt Q15116 25-167); assay: ELISA: hPD-1 immobilized, anti-human Fc peroxidase
T2 construct: also called Human recombinant PD-1 protein; PD1-His recombinant protein

[3] = target: T1, biotinylated Human PD1 (AcroBiosystems, …); assay: competition ELISA: PD-L1 immobilized, biotinylated PD-1 at fixed concentration, antibody varied
Experimental: as §1, §2

T1 sequence (Q15116 25-167 limits assumed): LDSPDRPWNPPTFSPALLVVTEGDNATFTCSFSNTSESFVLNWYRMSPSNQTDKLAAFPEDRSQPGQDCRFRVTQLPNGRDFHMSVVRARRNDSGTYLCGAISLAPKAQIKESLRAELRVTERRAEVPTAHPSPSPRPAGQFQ
T2 sequence (Q15116 25-167 limits assumed): as above

| Binder | IC50 (read off the curve) [1] [ng/mL] | also measured |
| --- | --- | --- |
| Humanized anti-PD1 (VH SEQ ID NO:24, VL SEQ ID NO:28) VH fusion to Cytokine-protein A (IL-7) (other, not shown: small tags and cut ends, Bifunctional molecule; also called Anti-PD1 fused to Cytokine-protein A (IL-7), VH fusion; anti PD-1 VH IL-7) heavy: QIQLVQSGSELKKPGASVKVSCKASGYTFTHYAMNWVRQAPGQGLEWMGWINTNTGEPTYAQGFTGRFVFSLDTSVSTAYLQISSLKAEDTAVYYCAREREPGMDNWGQGTLVTVSS VL: DVVMTQSPLSLPVTLGQPASISCRSSQSLVHANTNTYLEWYQQRPGQSPRLLIYKVSNRFSGVPDRFSGSGSGTDFTLKISRVEAEDVGVYYCFQGTHVPNTFGQGTKLEIK | ~700 |  |
| Anti-PD1 Ab alone, no fusion, FIG. 4 / Table 1 (antibody, V domains shown) VH: QIQLVQSGSELKKPGASVKVSCKASGYTFTHYAMNWVRQAPGQGLEWMGWINTNTGEPTYAQGFTGRFVFSLDTSVSTAYLQISSLKAEDTAVYYCAREREPGMDTWGQGTLVTVSS VL: DVVMTQSPLSLPVTLGQPASISCRSSQSLVHANTNTYLEWYQQRPGQSPRLLIYKVSNRFSGVPDRFSGSGSGTDFTLKISRVEAEDVGVYYCFQGTHVPNTFGQGTKLEIKR |  | EC50 [2]: 1.67 ng/mL |
| Humanized anti-PD1 (VH SEQ ID NO:24, VL SEQ ID NO:28) VH fusion to CD80 (other, not shown: small tags and cut ends, Bifunctional molecule; also called anti PD-1 VH CD80) heavy: QIQLVQSGSELKKPGASVKVSCKASGYTFTHYAMNWVRQAPGQGLEWMGWINTNTGEPTYAQGFTGRFVFSLDTSVSTAYLQISSLKAEDTAVYYCAREREPGMDNWGQGTLVTVSS VL: DVVMTQSPLSLPVTLGQPASISCRSSQSLVHANTNTYLEWYQQRPGQSPRLLIYKVSNRFSGVPDRFSGSGSGTDFTLKISRVEAEDVGVYYCFQGTHVPNTFGQGTKLEIK | ~900 |  |
| Anti-PD1 Ab alone, no fusion (FIG. 8 / Table 5) (antibody, V domains shown, also called anti-PD1 antibody alone) VH: QIQLVQSGSELKKPGASVKVSCKASGYTFTHYAMNWVRQAPGQGLEWMGWINTNTGEPTYAQGFTGRFVFSLDTSVSTAYLQISSLKAEDTAVYYCAREREPGMDNWGQGTLVTVSS VL: DVVMTQSPLSLPVTLGQPASISCRSSQSLVHANTNTYLEWYQQRPGQSPRLLIYKVSNRFSGVPDRFSGSGSGTDFTLKISRVEAEDVGVYYCFQGTHVPNTFGQGTKLEIK |  | IC50 [3]: 0.184 µg/mL |
